Results on eight molecules are retold here after patent US11116816B2, “Therapeutic vitamin d conjugates” (Extend Biosciences, Inc., priority 2014, dated 2021).

The conditions of data set [1]: Bertrand et al. 2015; cited from earlier work.
Data set [2] can be described thus: Pharmacokinetics of apelin and apelin conjugates, intravenous. It is filed as in vivo, Sprague-Dawley rats. Particulars: for pharmacokinetic properties compared to unmodified apelin: ELISA (FIG. 5); for bioavailability improvement: AUC versus native apelin-13, 0.1 mg/kg intravenous. On the procedure:
FIG. 5: Pharmacokinetics of apelin and apelin conjugates. Apelin alone or conjugated to the Vitamin D-(25)-PEG2k-maleimide carrier, or the Vitamin D-(3)-PEG2k-aldehyde carrier were injected intravenously into Sprague-Dawley rats at 0.1 mg/kg. Plasma samples were analyzed for apelin concentration by ELISA in duplicate and the average value from three animals were plotted on the semi-log graph.
Plasma samples were taken at 5 min, and 0.5, 1, 2, 4, 8 and 24 hr and analyzed for the presence of apelin by quantitative ELISA (Phoenix Pharmaceuticals, Burlingame, Calif., Cat. No. EK-057-23). […] Unmodified apelin decayed to near-background levels within 5 minutes of injection.
The decay rates of the carrier-conjugates are complex and probably represent a combination of slower renal clearance and protection from protease degradation. A pharmacokinetic analysis of the data was then performed using WinNonLin (PharSight) and GraphPad (Prism).
In general terms: In an ELISA, binding on a coated surface is turned into a signal by an enzyme label.

For data set [3] the following is noted: in vivo; cited from earlier work.
Data set [4] addresses T1, human FGF21 receptor (FGFR1), recruitment of co-receptor β-Klotho (Homo sapiens, UniProt P11362+Q86Z14).
T1 construct: host or cells: U2OS (PathHunter)
Briefly: PathHunter U2OS FGFR1-β-Klotho Functional Assay. It is filed as cell-based. Particulars: PathHunter U2OS cells expressing FGFR1, β-Klotho recruitment, chemiluminescence. The source says:
In some embodiments, the activity of the FG21, when conjugated to a carrier, was substantially the same as unmodified protein. […] PathHunter® cells stably express human FGF21 receptor (FGFR1). They were monitored for recruitment of the co-receptor, β-Klotho, following exposure to the test compounds using the PathHunter® Detection reagent cocktail on a PerkinElmer Envision instrument with chemiluminescent signal detection. […] Thus, the FGF21 conjugates retained about the same receptor activity as the unmodified FGF21 protein or better.

Data set [5] is described as follows: Pharmacokinetics of FGF21 conjugates, subcutaneous. It is filed as in vivo, Sprague Dawley rats. The settings on record: 0.1 mg/kg sc; for Cmax: plasma, human FGF21 ELISA. On the procedure: The pharmacokinetics of FGF21 conjugates in Sprague Dawley rats were determined. Unmodified FGF21, VitD-(25)-PEG2K-FGF21 and VitD-(3)-PEG2K-FGF21 were compared. […] The samples were analyzed using commercial ELISA kits for human FGF21 (Millipore Cat. No. EZHFGF21-19K). […] Improvements in the mean residence time (MRT) and terminal rate constant (Lz) values were also observed.

The conditions of data set [6]: natural state; WO03/011213, Kharitonenkov et al. 2005; cited from earlier work.
Setting [7] is: 0.1 mg/kg intravenous, plasma, ELISA.

Like-named read-outs stand apart in the source and are kept apart here. Primed or numbered codes have the meaning given here. No end group written: not given here.

T1 sequence (P11362 22-822): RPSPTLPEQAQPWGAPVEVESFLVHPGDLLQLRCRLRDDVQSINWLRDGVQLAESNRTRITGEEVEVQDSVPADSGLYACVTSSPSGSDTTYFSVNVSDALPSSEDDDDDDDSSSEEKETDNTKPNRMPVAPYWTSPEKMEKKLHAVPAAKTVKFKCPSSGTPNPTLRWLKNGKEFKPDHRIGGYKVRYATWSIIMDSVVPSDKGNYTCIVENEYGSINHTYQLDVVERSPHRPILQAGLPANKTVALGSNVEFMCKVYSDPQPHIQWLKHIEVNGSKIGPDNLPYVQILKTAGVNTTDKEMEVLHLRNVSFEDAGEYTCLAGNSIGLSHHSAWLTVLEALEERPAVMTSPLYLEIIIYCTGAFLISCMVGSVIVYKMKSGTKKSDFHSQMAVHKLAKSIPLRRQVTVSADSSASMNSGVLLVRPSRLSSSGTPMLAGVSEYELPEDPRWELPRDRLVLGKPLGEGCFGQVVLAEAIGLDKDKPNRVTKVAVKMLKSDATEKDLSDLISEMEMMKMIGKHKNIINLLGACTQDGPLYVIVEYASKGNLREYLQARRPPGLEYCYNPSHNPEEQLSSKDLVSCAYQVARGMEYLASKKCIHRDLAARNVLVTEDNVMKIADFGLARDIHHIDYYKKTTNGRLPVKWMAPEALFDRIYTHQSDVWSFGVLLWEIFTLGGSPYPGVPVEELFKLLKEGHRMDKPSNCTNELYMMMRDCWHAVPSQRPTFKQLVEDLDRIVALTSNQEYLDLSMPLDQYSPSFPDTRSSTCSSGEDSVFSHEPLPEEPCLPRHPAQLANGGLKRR
T1 sequence (Q86Z14 52-1044 limits assumed): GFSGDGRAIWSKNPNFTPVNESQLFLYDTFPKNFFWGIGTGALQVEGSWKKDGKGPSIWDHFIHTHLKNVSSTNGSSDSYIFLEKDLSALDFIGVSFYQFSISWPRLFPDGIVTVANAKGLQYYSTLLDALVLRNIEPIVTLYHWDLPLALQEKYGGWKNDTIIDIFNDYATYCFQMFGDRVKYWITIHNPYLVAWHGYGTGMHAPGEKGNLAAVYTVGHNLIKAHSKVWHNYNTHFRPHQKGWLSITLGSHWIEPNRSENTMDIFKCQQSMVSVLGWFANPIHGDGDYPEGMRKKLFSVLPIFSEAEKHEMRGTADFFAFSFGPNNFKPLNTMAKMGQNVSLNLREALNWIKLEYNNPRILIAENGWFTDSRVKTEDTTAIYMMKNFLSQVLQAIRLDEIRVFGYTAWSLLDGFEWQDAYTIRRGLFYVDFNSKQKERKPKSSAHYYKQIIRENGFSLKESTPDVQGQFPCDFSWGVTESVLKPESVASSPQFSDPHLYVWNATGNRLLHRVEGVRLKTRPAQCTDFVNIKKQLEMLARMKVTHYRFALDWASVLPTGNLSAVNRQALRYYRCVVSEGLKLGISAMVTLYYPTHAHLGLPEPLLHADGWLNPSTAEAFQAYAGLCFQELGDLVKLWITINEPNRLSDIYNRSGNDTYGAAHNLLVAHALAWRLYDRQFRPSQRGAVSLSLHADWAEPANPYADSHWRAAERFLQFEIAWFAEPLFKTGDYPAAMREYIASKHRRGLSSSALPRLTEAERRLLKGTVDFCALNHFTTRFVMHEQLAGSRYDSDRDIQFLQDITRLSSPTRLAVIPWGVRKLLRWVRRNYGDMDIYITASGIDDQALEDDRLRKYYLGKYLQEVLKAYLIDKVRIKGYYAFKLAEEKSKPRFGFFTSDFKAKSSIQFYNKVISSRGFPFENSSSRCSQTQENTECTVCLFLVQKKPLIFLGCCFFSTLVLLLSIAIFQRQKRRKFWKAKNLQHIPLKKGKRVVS

As for `CSCC[C@H](NC(=O)[C@@H]1CCCN1C(=O)CNC(=O)[C@H](CCCCN)NC(=O)[C@H](Cc1cnc[nH]1)NC(=O)[C@H](CO)NC(=O)[C@H](CC(C)C)NC(=O)[C@H](CCCNC(=N)N)NC(=O)[C@@H]1CCCN1C(=O)[C@H](CCCNC(=N)N)NC(=O)[C@@H](N)CCC(N)=O)C(=O)N1CCC[C@H]1C(=O)N[C@@H](Cc1ccccc1)C(=O)O` [apelin-13, reference compound], in data set [1], the in vivo half-life is no more than 0.333 h. The “time to decay to near-background levels after injection” value in data set [2] (setting [7]) is no more than 5 min. The AUC (as a rule, concentration integrated over time) in data set [2] (Sprague-Dawley, rat, 0.1 mg/kg intravenous, plasma, ELISA, read-out: AUC) turned out to be 0.4 ng·h/mL.
With “PTH: Parathyroid hormone, polypeptide containing 84 amino acids secreted by the parathyroid glands”, the half-life entry in data set [3] is on record as “approximately 4 minutes”.
As for “VitD-(3)-PEG2K-apelin: Apelin-13 conjugated at N-terminal amine to Vitamin D-(3)-PEG2K-aldehyde carrier ({VitD‑(3)-PEG2K}-QRPRLSHKGPMPF)”, the AUC in data set [2] (setting [7]) was found to be 328 ng·h/mL. For the same molecule, the “pharmacokinetic properties compared to unmodified apelin” value in data set [2] (0.1 mg/kg intravenous, plasma) was “significantly improved pharmacokinetic properties”. Moreover, in data set [2], the bioavailability improvement is 820 fold.
Take “VitD-(25)-PEG2K-C-apelin: C-apelin (SEQ ID NO:16, N-terminal cysteine) conjugated to VitD-(25)-PEG2K-maleimide carrier (CQRPRLSHKGPMPF; VitD-(25)-PEG2K-maleimide carrier conjugate)”: the AUC in data set [2] (setting [7]) came to 85 ng·h/mL. Further, the “pharmacokinetic properties compared to unmodified apelin” value in data set [2] (0.1 mg/kg intravenous, plasma) is on record as “improved pharmacokinetic properties”. In addition, in data set [2], the bioavailability improvement came to 213 fold.

B1: FGF21: Modified FGF21 expressed in E. coli, I3C substitution and His6 tag, SEQ ID NO:22, not conjugated (protein)
chain: MHHHHHHHPCPDSSPLLQFGGQVRQRYLYTDDAQQTEAHLEIREDGTVGGAADQSPESLLQLKALKPGVIQILGVKTSRFLCQRPDGALYGSLHFDPEACSFRELLLEDGYNVYQSEAHGLPLHLPGNKSPHRDPAPRGPARFLPLPGLPPALPEPPGILAPQPPDVGSSDPLSMVGPSQGRSPSYAS
modifications: His6 tag
B1: the 50% effective concentration (EC50) (usually the concentration needed to bring the measured effect to its halfway point) in data set [4] is 0.16 µg/mL. In data set [5], the AUCtot is given as 228 h(ng/ml); the “Lz (terminal rate constant)” value is “.534 h⁻¹”; the MRT (as a rule, the average time that molecules of a dose stay in the body) is 2.8 h; the Tmax (as a rule, the time at which the peak concentration occurs) stood at 2 h. Also, in data set [5], the t½ (as a rule, the time in which the quantity being followed falls by half) came out at 1.3 h and the Cmax (usually the maximum level reached in the sampled fluid or tissue) came out at 59 ng/mL.

B2: VitD-(25)-PEG2K-FGF21: Modified FGF21 (SEQ ID NO:22) conjugated via free cysteine to VitD-(25)-PEG2K-maleimide (conjugate)
chain: B1 chain
modifications: VitD-PEG2K-maleimide conjugated at free cysteine
In the case of B2, the EC50 in data set [4] was 0.13 µg/mL. In data set [5], the AUCtot is recorded as 1640 h(ng/ml), the “Lz (terminal rate constant)” value is “.131 h⁻¹”, the mean residence time MRT came out at 7.9 h and the time to peak (Tmax) came out at 2 h. Further, in data set [5], the “half-life (t1/2)” value came to 5.3 h, the “half-life improvement compared to unmodified FGF21” value turned out to be 4.1 fold, the “improvement in AUC values versus unmodified FGF21” value is recorded as 7.2 fold and the t½ is reported as 5.3 h. Also, the Cmax in data set [5] was determined as 115 ng/mL.

B3: VitD-(3)-PEG2K-FGF21: Modified FGF21 (SEQ ID NO:22) conjugated via free cysteine to VitD-(3)-PEG2K-maleimide (conjugate)
chain: B1 chain
modifications: VitD-PEG2K-maleimide conjugated at free cysteine
Take B3: in data set [4], the concentration for a half-maximal effect (EC50) is 0.40 µg/mL. In data set [5], the AUCtot is recorded as 2727 h(ng/ml), the “Lz (terminal rate constant)” value is “.0604 h⁻¹”, the mean residence time MRT was 18.9 h and the time of peak concentration (Tmax) was found to be 4 h. Further, in data set [5], the “half-life (t1/2)” value worked out at 11.5 h, the “half-life improvement compared to unmodified FGF21” value was 8.8 fold, the “improvement in AUC values versus unmodified FGF21” value is on record as 12.0 fold and the t½ was determined as 11.5 h. In data set [5], this molecule showed a Cmax of 118 ng/mL.

B4: FGF21 in its natural state: Fibroblast Growth Factor 21, protein that circulates in serum, natural state (protein, UniProt Q9NSA1 29-209, looked up)
Fibroblast growth factor 21: HPIPDSSPLLQFGGQVRQRYLYTDDAQQTEAHLEIREDGTVGGAADQSPESLLQLKALKPGVIQILGVKTSRFLCQRPDGALYGSLHFDPEACSFRELLLEDGYNVYQSEAHGLPLHLPGNKSPHRDPAPRGPARFLPLPGLPPALPEPPGILAPQPPDVGSSDPLSMVGPSQGRSPSYAS
Consider B4, for which, in data set [6], the half-life in serum result was “about 1.1 hours”.
